Source: paper PMC12319266, “The Highly Conserved Cys95 Residue of Fructose‐1,6‐Bisphosphatase 1 Mediates the pH‐Driven Structure and Activity of the Enzyme and Photosynthesis” (Plant, Cell & Environment, 2025)
Positions count from the first letter of the chain named. Names may count otherwise.

B1: recombinant mature wild-type fructose-1,6-bisphosphatase 1 (cFBP1) of Arabidopsis (enzyme, Arabidopsis thaliana, UniProt P25851 60-417, looked up)
chain: AVAADAAETKTAARKKSGYELQTLTGWLLRQEMKGEIDAELTIVMSSISLACKQIASLVQRAGISNLTGVQGAVNIQGEDQKKLDVISNEVFSNCLRSSGRTGIIASEEEDVPVAVEESYSGNYVVVFDPLDGSSNIDAAVSTGSIFGIYSPNDECIVDDSDDISALGSEEQRCIVNVCQPGNNLLAAGYCMYSSSVIFVLTLGKGVFSFTLDPMYGEFVLTQENIEIPKAGRIYSFNEGNYQMWDDKLKKYIDDLKDPGPTGKPYSARYIGSLVGDFHRTLLYGGIYGYPRDAKSKNGKLRLLYECAPMSFIVEQAGGKGSDGHSRVLDIQPTEIHQRVPLYIGSTEEVEKLEKYLA
notes: Fructose-1,6-bisphosphatase 1, chloroplastic (cFBP1), Arabidopsis thaliana, gene At3g54050; ca. 40 kDa on SDS-PAGE; numbers count on: the mature protein; The number of chains depends on pH: tetramer at pH 7.0, dimer at pH 8.3, mainly dimer at pH 7.8 when fresh; Expressed from pDEST17, which to my knowledge adds an N-terminal His6; No step to cleave the tag is described; also called WT cFBP1; WT
B2: recombinant mature C95S variant of fructose-1,6-bisphosphatase 1 (cFBP1) of Arabidopsis (enzyme, Arabidopsis thaliana, UniProt P25851 60-417, looked up)
chain: B1 chain with C95S
notes: Fructose-1,6-bisphosphatase 1, chloroplastic (cFBP1), Arabidopsis thaliana, gene At3g54050; Cys95 replaced by Ser; numbers count on: the mature protein; The number of chains depends on pH: tetramer at pH 7.0, dimer at pH 8.3, mainly tetramer at pH 7.8; Expressed from pDEST17, which to my knowledge adds an N-terminal His6; No step to cleave the tag is described; also called C95S cFBP1; cFBP1 C95S

Columns and labels:
[1] = target: the molecule itself; assay: SEC; Superdex 200 HR 10/30, 50 mM Tris pH 7.0/0.15 M NaCl, 0.3 mL/min; native mass against protein standards
[2] = target: the molecule itself; assay: SEC; Superdex 200 HR 10/30, 50 mM Tris pH 8.3/0.15 M NaCl, 0.3 mL/min; native mass against protein standards

| Protein | stoichiometry N [1] | stoichiometry N [2] |
| --- | --- | --- |
| B1 | 4 | 2 |
| B2 | 4 | 2 |
